Measurements published in US20210205403A1 (RESEARCH FOUNDATION FOR THE STATE UNIVERSITY OF NEW YORK, published 2021).

Biological target: HDM-2 in the cancer cell membrane (human, UniProt Q00987 1-491)
Test: cell-based or functional assay

HDM-2 in the cancer cell membrane, sequence (Q00987 whole entry): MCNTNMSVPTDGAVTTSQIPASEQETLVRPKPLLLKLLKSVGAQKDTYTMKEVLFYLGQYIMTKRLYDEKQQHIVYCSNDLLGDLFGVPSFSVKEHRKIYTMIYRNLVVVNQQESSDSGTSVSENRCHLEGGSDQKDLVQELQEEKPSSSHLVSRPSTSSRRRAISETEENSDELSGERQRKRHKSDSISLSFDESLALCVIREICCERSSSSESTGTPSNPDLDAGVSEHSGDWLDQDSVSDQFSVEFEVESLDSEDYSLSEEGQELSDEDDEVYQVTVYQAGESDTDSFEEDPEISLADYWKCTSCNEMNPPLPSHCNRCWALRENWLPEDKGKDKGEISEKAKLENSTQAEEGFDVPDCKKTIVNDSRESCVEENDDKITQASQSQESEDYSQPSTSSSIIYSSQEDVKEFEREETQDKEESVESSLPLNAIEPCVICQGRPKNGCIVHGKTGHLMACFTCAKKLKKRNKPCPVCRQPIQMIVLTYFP

With PPLSQETFSDLWKLLKKWKMRRNQFWVKVQRG [PNC-27 (p53 aa12-26-MRP)] the “IC50 (dose of PNC-27 on cancer cells)” value was 125 µg/mL.
